Results: patent US20240059764A1 (STARMAB BIOLOGICS SUZHOU, published 2024)

biological target: Staphylococcus aureus alpha toxin (Staphylococcus aureus, UniProt P09616)
Sequence (P09616 27-319 limits assumed): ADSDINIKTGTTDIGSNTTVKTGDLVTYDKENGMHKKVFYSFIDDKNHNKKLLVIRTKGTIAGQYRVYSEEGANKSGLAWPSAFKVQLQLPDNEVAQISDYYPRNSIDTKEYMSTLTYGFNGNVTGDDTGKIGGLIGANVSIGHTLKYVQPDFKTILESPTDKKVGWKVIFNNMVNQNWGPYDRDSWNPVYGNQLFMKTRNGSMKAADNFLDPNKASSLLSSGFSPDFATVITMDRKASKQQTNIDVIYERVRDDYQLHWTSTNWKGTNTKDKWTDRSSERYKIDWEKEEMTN

Row | Binder | EC50
1 | huF6-Fc fusion proteins binding with antigen (Fc fusion) EVQLVESGGGLVQPGGSLRLSCAASGSTLDSYTVAWVRQAPGKGLEWVSCASRSGASTNYANSVKGRFTISRDNSKNTVYLQMNSLRAEDTAVYYCAAYRNFGNFCVMGRYEYDEWGQGTLVTVSSEPKSSDKTHTCPPCPAPELLGGPSVFLFPPKPKDTLYITREPEVTCVVVDVSHEDPEVKFNWYVDGVEVHNAKTKPREEQYNSTYRVVSVLTVLHQDWLNGKEYKCKVSNKALPAPIEKTISKAKGQPREPQVYTLPPSREEMTKNQVSLTCLVKGFYPSDIAVEWESNGQPENNYKTTPPVLDSDGSFFLYSKLTVDKSRWQQGNVFSCSVMHEALHNHYTQKSLSLSPGK | 2.72 ng/mL
2 | huA3-Fc fusion proteins binding with antigen (Fc fusion) QVQLVESGGGLVQPGGSLRLSCAASGFTFSRHGMTWVRQAPGKGLEYVGEINIPGDDVDYDISVKGRFTISRDNAKNTLYLQMNSLRAEDTAVYYCARAGENMRLVTRGQGTLVTVSSEPKSSDKTHTCPPCPAPELLGGPSVFLFPPKPKDTLYITREPEVTCVVVDVSHEDPEVKFNWYVDGVEVHNAKTKPREEQYNSTYRVVSVLTVLHQDWLNGKEYKCKVSNKALPAPIEKTISKAKGQPREPQVYTLPPSREEMTKNQVSLTCLVKGFYPSDIAVEWESNGQPENNYKTTPPVLDSDGSFFLYSKLTVDKSRWQQGNVFSCSVMHEALHNHYTQKSLSLSPGK | 5.97 ng/mL
3 | huG1-Fc fusion proteins binding with antigen (Fc fusion) QVQLVESGGGLVQPGGSLRLSCAASGFTISSTGMTWVRQAPGKGLEWVGDINIPGTDTDYDISVKGRFTISKDHAKNTVYLQMNSLRAEDTAVYYCAKQGANLRQGVQGQGTLVTVSSEPKSSDKTHTCPPCPAPELLGGPSVFLFPPKPKDTLYITREPEVTCVVVDVSHEDPEVKFNWYVDGVEVHNAKTKPREEQYNSTYRVVSVLTVLHQDWLNGKEYKCKVSNKALPAPIEKTISKAKGQPREPQVYTLPPSREEMTKNQVSLTCLVKGFYPSDIAVEWESNGQPENNYKTTPPVLDSDGSFFLYSKLTVDKSRWQQGNVFSCSVMHEALHNHYTQKSLSLSPGK | 6.35 ng/mL
4 | G1-Fc fusion proteins binding with antigen (Fc fusion) QVQLVESGGDLVQPGGSLTLACEASGFTISSTGMTWVRQAPGKELDWVGDINIPGTDTDYDISVKGRFTISKDHAKNTVYLQMTSLRPEDTAIYYCAKQGANLRQGVQSPGTLVTVSSEPKSSDKTHTCPPCPAPELLGGPSVFLFPPKPKDTLYITREPEVTCVVVDVSHEDPEVKFNWYVDGVEVHNAKTKPREEQYNSTYRVVSVLTVLHQDWLNGKEYKCKVSNKALPAPIEKTISKAKGQPREPQVYTLPPSREEMTKNQVSLTCLVKGFYPSDIAVEWESNGQPENNYKTTPPVLDSDGSFFLYSKLTVDKSRWQQGNVFSCSVMHEALHNHYTQKSLSLSPGK | 7 ng/mL
5 | A3-Fc fusion proteins binding with antigen (Fc fusion) QVQLVESGGGLVQAGGSLTLSCVASGFTFSRHGMTWVRQAPGKELDYVGEINIPGDDVDYDISVKGRFTISRDNAKNTVYLHMTNLKVEDTATYWCAQAGENMRLVTRRQGTQVTVSTEPKSSDKTHTCPPCPAPELLGGPSVFLFPPKPKDTLYITREPEVTCVVVDVSHEDPEVKFNWYVDGVEVHNAKTKPREEQYNSTYRVVSVLTVLHQDWLNGKEYKCKVSNKALPAPIEKTISKAKGQPREPQVYTLPPSREEMTKNQVSLTCLVKGFYPSDIAVEWESNGQPENNYKTTPPVLDSDGSFFLYSKLTVDKSRWQQGNVFSCSVMHEALHNHYTQKSLSLSPGK | 9 ng/mL
6 | F6-Fc fusion proteins binding with antigen (Fc fusion) QVQLVESGGGLAQPGGSLRLSCEASGSTLDSYTVAWFRQAPGKEREGVSCASRSGASTNYANSVKGRFTISRDNAKNTVYLQMNSLKPEDTGVYYCAAYRNFGNFCVMGRYEYDEWGQGTQVTVSSEPKSSDKTHTCPPCPAPELLGGPSVFLFPPKPKDTLYITREPEVTCVVVDVSHEDPEVKFNWYVDGVEVHNAKTKPREEQYNSTYRVVSVLTVLHQDWLNGKEYKCKVSNKALPAPIEKTISKAKGQPREPQVYTLPPSREEMTKNQVSLTCLVKGFYPSDIAVEWESNGQPENNYKTTPPVLDSDGSFFLYSKLTVDKSRWQQGNVFSCSVMHEALHNHYTQKSLSLSPGK | 3 ng/mL
